Source: the Immune Epitope Database (IEDB)

Experiments:
Test in all cases: IEDB peptide-MHC binding, purified MHC/competitive/radioactivity; filed as Kd, often an IC50 or EC50 that approximates it; ≥ and ≤ were set here for values at or beyond the usual limits of such assays
HLA-A*02:03 = biological target: HLA-A*02:03
HLA-A*02:06 = biological target: HLA-A*02:06
HLA-A*02:02 = biological target: HLA-A*02:02
HLA-A*68:02 = biological target: HLA-A*68:02
HLA-A*02:01 = biological target: HLA-A*02:01
[1] = source organism: Lassa virus Josiah
[2] = source organism: Guanarito virus strain INH-95551
[3] = source organism: Pichinde virus strain Munchique
[4] = source organism: Whitewater Arroyo virus strain AV9310135

Work on YLISIFLHL yielded a Kd (HLA-A*02:03; [1]) of 11 nM, a Kd (HLA-A*02:06; [1]) of 10 nM and a Kd (HLA-A*02:02; [1]) of 173 nM.

For GTTSLFLHL, the Kd (HLA-A*02:03; [2]) was 750 nM, the Kd (HLA-A*02:06; [2]) was 5 nM and the Kd (HLA-A*68:02; [2]) was 5 nM. It also gave a Kd (HLA-A*02:02; [2]) of 57 nM and a Kd (HLA-A*02:01; [2]) of 49 nM.

Work on YTITVFLHL yielded a Kd (HLA-A*02:03; [3]) of 14800 nM, a Kd (HLA-A*02:06; [3]) of 7 nM and a Kd (HLA-A*68:02; [3]) of 5 nM. The Kd (HLA-A*02:02; [3]) was 128 nM and the Kd (HLA-A*02:01; [3]) was 10 nM.

Sequence YVSSIFLHL has a Kd (HLA-A*02:03; [4]) of 10 nM, a Kd (HLA-A*02:06; [4]) of 15 nM and a Kd (HLA-A*68:02; [4]) of no more than 1 nM. For the same sequence, the Kd (HLA-A*02:02; [4]) was no more than 1 nM.
